Experimental data: the DeepSol protein solubility set

Assay: soluble on expression in E. coli; label from the status in PepcDB or PDB records

Row | Sequence | soluble on expression in E. coli
1 | MASKYAVKLQTDFDNPKWIKRHKFMFDYLDINGNGQITLDEIVSKASDDICKNLGATPAQTQRHQDCVEAFFRGCGLEYGKETKFPEFLEGWKNLANADLAKWARNEPTLIREWGDAVFDIFDKDGSGTITLDEWKAYGRISGISPSEEDCEKTFQHCDLDNSGELDVDEMTRQHLGFWYTLDPEADGLYGNGVP | soluble
2 | MKDEISNPDLGAIYTTKILGVLLENWPKQTYLCCSEVTGIDFDEESVFDSFSPQPYPKEWEVCRDLIVWLENEGFIRSEGSRGSSFGFFSVEITMSAMTALNQVPDPLDPESTRTLKDTLKDIAKSGSGKLADKIMDKAFFAFVTMLEKSAG | not soluble
3 | MGHHHHHHSHMAGAQPGVHALQLKPVCVSDSLKKGTKFVKWDDDSTIVTPIILRTDPQGFFFYWTDQNKETELLDLSLVKDARCGRHAKAPKDPKLRELLDVGNIGRLEQRMITVVYGPDLVNISHLNLVAFQEEVAKEWTNEVFSLATNLLAQNMSRDAFLEKAYTKLKLQVTPEGRIPLKNIYRLFSADRKRVETALEACSLPSSRN | not soluble
4 | MTSIEPTHTGKKVIVGMSGGVDSSVSAYLLMQQGYQVEGLFMKNWEEDDNDEYCAAAEDLKDAQAVCDKLGIKLHTVNFAAEYWDNVFEYFLAEYKAGRTPNPDIMCNKEIKFKAFLEFADDILDADYIAMGHYVRRRDNEDGTTQMLRGVDNNKDQSYFLYTLSHEQVARSLFPVGELEKHEVREIAKQMGLITHDKKDSTGICFIGERKFTEFLGNYLPAQPGNIETADGEVIGTHQGLMYHTLGQRKGLGIGGMKNSNDDPWYVVDKDLKRNVLVVGQGGHHPRLMSNGMLVNQLHWVDRKGPINGSQIVVKTRYRQQDIPCTLTYLDDNTLKVVFDEPVAAVTPGQSAVFYDGEVCLGGGIIDQLIRGLEHHHHHH | soluble
5 | MSAVEQFVSYCRDEIEIVARLVDLLEQEQKLLIRGESLQLEPLADRKSEVLDQLAAQSAQRGRLMESLGVQDKDTLYIWLADKPSACKEWTRLEDAVNRAQSINQLNAAFVDERLAQVESSLDVLRTAAASTLGYGPDGQPPELVSGRRLLGSA | not soluble
6 | MQQRMGAMPMAVLYPQSYLPHSAVPCPAPGYGNMFSGYGAAPVMMMVAGNAPYPVNAHFGHSATPMYFAMDPANSAAPMAVVADAASVCATPKAKLAHSGSGNSLSTQSCCSGGETPSLLSRSAASSTVKQRPHHDVNVWGFALVDQLHPSLQRIPVPLSCLHEPTMGISLYDNNVMSSSTRPCKSSVCLLHAQGLGCAEGSRCRCFHVSSAYLMQCRATSESLCCALHNCYYSQEMLGANCAPHVSGRCYALSLDDASKFPQDGEKPYLINLSLLNLSLTVGLETLPCVNSVYVVSWKKHVCRLSMDGLCKWTKDCGHIHVCRQLTRFLQDAETLSIVKTLQERTRPKSSAELYRDIILSENTLRYVRSVAALSLVAALLEAGDVEALKTLARAKCALLPSQSEALQKLGIALSGSDSTRSVTVSPKLLALLTPKGTN | not soluble
7 | EVQLQASGGGSVQAGQSLRLSCATSGATSSSNCMGWFRQAPGKEREGVAVIDTGRGNTAYADSVQGRLTISLDNAKNTLYLQMNSLKPEDTAMYYCAADTSTWYRGYCGTNPNYFSYWGQGTQVTVSSRGRHHHHHH | soluble
8 | SRKMSLMRKEKLRGKAIKYVPASLLTKEFYSEAFTLNVDVIENIPKEFITAKMCEEAIQKNRHNIAYIPFEYRTEKIITEAIKNNGLALSEIDDTQKTEQLCLLAIRNHGGALQYVPYQLRTPEICLEAVKNFNGALNYVPEHIRTADFHTEYLIEDDWIDELLAGYDERLLKAVRKDARNLAAIPEEQRTYELCVEALLNNNDSDSVLKYVPDEFKTPEFYRNCVRINNKHFKDIPDSMKSYELCFEAVTNSPYALEYVPQRLLTKEIILAALSQKSMAVLDYVPPEFMTEEVYTTAFKNDIFGDIAYIFPEEYRTKENYLAMLGNPYSVCSTIIKTMPDYLKTDDFLVAAAKLRDEMLEYVPEYLLTQELCYELVKANGYALRITPPQFITEALCRTAVESDPRALCYVPEEFRTHEICDLALQKDMGLIKYAPADFAITADLCRRAVEADADAINQIPEQFRTEELWRIAVSEYGRLLEDLPASLMSEEFCRLAVANDGRALEFVPDKNKTKDVCFEAVRNSGHALKFVDVSKLTKEEYSKLCRLAFER | not soluble
9 | SSHGIGDALGSDWPGREPRATDNRGQYLKGESWVSGRPGHPKLREVGFLRGEPPSAGPKGLGTWSELSHRYFELGQLPYAYPYYKVLPEGELRCVSLDRFNPGLSEETVEDEKTLKFFRWSADSRGVTGSAIFQISKSLMP | soluble
10 | MDDDPHFDQNVQTVIAKTEAYITESVKAGGTGRALRDAHAKGYGLVRGEVEILDGLPPEYAQGIYATPGTHDALIRFSNGSPHAGADARLGAATGLALKIFDIPGPTLLEDEPDTGTFDYANINGPIFFCNTVEHYLFIQELFLNAPAYFSQGRPGAHRFFTDFVTGKGTLDQDDWAWDEFLAFLRLSKTPPANLLLSSYWTMGAVRHGDYIAKVRITPDPSFAAAVVRRDIDPTSAQEVFRPALEAELQERPYAFDIQVQLCTDLERMPVEDTTVEWPEQLSPSVTVAKLRLPRQDISGPENLEKMDSLSFTPWRVTAEHAPLGNIMRSRKEVYRQSSMERHKLEHHHHHH | not soluble
11 | MSNSITVRARGVNGQESVSLQVGGTTVQTWTLTTAMQDYTASTSLTGEIRVAFTNDATGRDVQVDYIVVNGQTRQAENQSVNTGVWANNQCGGSGNSEWLHCNGYISFGNVS | soluble
12 | MWVEQIEKILTPRTPLILRCRNVPIPLIVSVFVECDMFDESLPISRAMKCLFVSVLCLSVGATAADAKPKIKVVNKTYSVNATTAQDLIQQMDARGPKGFWAYTDWYVKWTGGCDLSVSITYTMPKHKNEAKLDPELRKSWQSFVTALRKHEELHGAHGIQAAQEIEKSKCADGDSVIRKWSEQDKVLDQRTDHGKKDGVVLK | not soluble
13 | MTVFANRLLGPKGWLLNARVTIDGLFIASVEPDSAPLPGDVRVDTLLPAPGNLHSHSFQRAMAGMTEYRSRGRESFWTWRELMYRFLDRLTPEHVAAIAAQTFVEMQKAGYAAVGEFHYLHHRPGGGHYDDRAEMSARIVQAAAETGIGLTLLPVLYTHGGADGRALAGGQLRFGNDLDAYCTLVEGARAHTRTLAADARVGIAPHSLRAVSATDLAEVAARHPDGPVHIHIAEQTREVEEIEAAYGARPVDWLLNNAAVGPRWCLIHATHMSDAETRAMASTGAVAGLCPITEANLGDGIFNGVPYLEAGGAFGVGSDSNVLISLTEELRLLEYSQRLRDRERNVLAGAEGSTGAALYLGALRGGARALDRRAGEIAPGALADLVAIDSNAPALCALEPEQLLDGLIFAAGERVVSDLWSAGRHQVRAGRHVAEESIARRYGAALRDLLARV | not soluble
14 | MGSDKIHHHHHHMSNVISVENLGKKYLISHQGREPYTALRDVLTDGARAFYRRLFSPGTSQADAQAEEFWALKDVSFEVKQGDRIGIIGRNGAGKSTLLKILSRITEPTEGRVRIRGRVASLLEVGTGFHPELTGRENIFLNGAILGMNRAEIARKFDEIVAFAEIEKFLDTPVKRYSSGMYVRLAFAVAAHLEPEILIVDEVLAVGDAQFQNKCLGKMEDVSTKEGRTVLFVSHNMGAIDRLCTRAVLLERGRVRLADFTKPVIQMYLDKAKNAISAWSCSTSIPDFDGIFFESISIVNKDRKIAEVLPSNEPFSITLVVNATASLKGVQIAIRITNEQGIPILTTTNCDKAGKLQEISRGRYRYTVSLPASFLPPGYYTLIVASFVPGEKLFDGVEDKLGFCIDDMGSLATLMKDGRLGVVTPLMPWDEVRL | not soluble
15 | MGSDKIHHHHHHMYTREELMEIVSERVKKCTACPLHLNRTNVVVGEGNLDTRIVFVGEGPGEEEDKTGRPFVGRAGMLLTELLRESGIRREDVYICNVVKCRPPNNRTPTPEEQAACGHFLLAQIEIINPDVIVALGATALSFFVDGKKVSITKVRGNPIDWLGGKKVIPTFHPSYLLRNRSNELRRIVLEDIEKAKSFIKKEG | soluble
16 | MAHHHHHHMWCTRLCREEGLFRFLRNLFEVLDFVTERCRRCLDTSSCLLLLCASPLSSCSIGGPHTRGCFNEILHRLSRGAQQPAHRRQSATSSHPRTPWRLHRFNDERVCVWGGNPPPQSTTGRHRSLCTPFSLSHTPSTAWAPLLPADKHHMQASPVLAGAAVRRTATASVGSEPRTNLPFLINVVKKAQKSANTVVASTPALSSMSSTKEPPIQAAAFKPYPLLSPGEVKQAAGSSLLYKDDVCVLVNDAFPKSMVHCLVMPLDLRLQSLNALTKKDAPLLRHMLHVGDEYVRYLKTAVPHTYTARRFIAGFHALPSLPMLHMHVLSTDLDSPCLKNKKHYNSFATFFFLTGDRVLDDLERHGRVTLNQDVTRLRQMEEQDMKCLWCGTALPSVPAMKSHIQCCPQNKAVEKSS | not soluble
17 | MLTEEKVLAALNRVKDRDLNKSIVETGGIRELKISGANVSVKVALAQTGTREQMEIQQEIVNVLKGEGAESVGLRFDQLDETEIEKLGGLPKQEFHGPPLLHPNTSTTFIAVTSGKGGVGKSTVSVNLATTLARLGKKVGIIDADIYGFSVPDMMGIEERPKVVGEQIFPVERFGVKVISMGFFVEDNAPVIWRGPMLGKMLNNFFAEVEWGDLDYLILDLPPGTGDVALDIHTMLPHSKEILVTTPHATAAFVAARAGAMALKTHHEIIGVVENMAYFESKITGEKEYVFGQGGGERLAEELKTEVLGRIPLGQPEIDEDDFAPSVYGATHPIGEIYTAIAKRVIDKTTLEHHHHHH | soluble
18 | MLIAQEQEQSSISLLAEVSRAVNNEEDISKVLRLVLFILSEHMNMLRGMVTILNRTTGEMVINESFGLTDEQRQLARYKVGEGIIGQVVKTGRPSVVPRINEEPLFLDRTQSRAEENKEELCFICVPIKVGREVIGTLSADRRISVPAENGDKKLWRKSDRIDVLQYYVDLLSIIAAMIAQAVRIKQLDDEKS | not soluble
19 | MRGLLVATWIFVSVAASATPTTTTKSPPPTTTTLSPQILKAKLPPVVKNATWECGTDEFTKSISEGEIQAKCPKLRDHINSCCLQHDGCYEAQSGQKFCDDTFCSCLERRSRSSKSCHDESAPLFCDLVRTFGDGAYEASGPNASTTEESPAEKDDYDYESHVAGLNATPSSST | not soluble
20 | MGSDKIHHHHHHMAKKVAVLAVNPVNGCGLFQYLEAFFENGISYKVFAVSDTKEIKTNSGMVLIVDDVIANLKGHEDEFDALVFSCGDAVPVFQQYANQPYNVDLMEVIKTFGEKGKMMIGHCAGAMMFDFTGITKGKKVAVHPLAKPAIQNGIATDEKSEIDGNFFTAQDENTIWTMLPKVIEALK | not soluble
21 | MSEQPASLDPVSKQIIEQLQEDGRRSYSAIGKVVGLSEAAVRQRVQKLIDTGVTQIVAVTDPVQVGFSRQAMVGIRCSGDVTEIAARLADVDAIDYVVLTAGAYDILAEIVCENDDHLLAVLNKEIRTIPGVLGTETMVYLKLVKQQYDWGTR | not soluble
22 | MREVKLVTFDVWNTLLDLNIMLDEFSHQLAKISGLHIKDVANAVIEVRNEIKKMRAQASEDPRKVLTGSQEALAGKLKVDVELVKRATARAILNVDESLVLEGTKEALQFVKERGLKTAVIGNVMFWPGSYTRLLLERFGLMEFIDKTFFADEVLSYKPRKEMFEKVLNSFEVKPEESLHIGDTYAEDYQGARKVGMWAVWINQEGDKVRKLEERGFEIPSIANLKDVIELISKT | soluble
23 | GIYQHFSIEDRPFLDKGMEWIKKVEDSYAPFLTPFINPHQEKLLKILAKTYGLACSSSGEFVSSEYVRVLLYPDYFQPEFSDFEISLQEIVYSNKFEYLTHAKILGTVINQLGIERKLFGDILVDEERAQIMINQQFLLLFQDGLKKIGRIPVSLEERPFTEKID | soluble
